# Data from US20090130105A1 (Biogen, published 2009).
# B1: M13-C06 antibody (antibody, V domains shown)
# VH: EVQLLESGGGLVQPGGSLRLSCAASGFTFSIYRMQWVRQAPGKGLEWVSGISPSGGTTWYADSVKGRFTISRDNSKNTLYLQMNSLRAEDTAVYYCARWSGGSGYAFDIWGQGTMVTVSS
# VL: DIQMTQSPLSLSASVGDRVTITCQASRDIRNYLNWYQQKPGKAPKLLIYDASSLQTGVPSRFGGSGSGTDFSFTIGSLQPEDIATYYCQQFDSLPHTFGQGTKLEIK
# notes: Fully human full-length antibody (ATCC PTA-7444); also called M13.C06.G4.P.agly; M13-C06.G4P.agly
# B2: M13-C06 Fab (Fab, V domains shown)
# VH: B1 VH
# VL: B1 VL
# notes: Fab made by enzymatic digestion of the IgG
# How the values were obtained:
# [1] = molecular target: T1, human IGF-1R on H322M non-small cell lung cancer cells (human, UniProt P08069 31-1367); test: cell-based or functional assay
# [2] = molecular target: T1, human IGF-1R on H322M non-small cell …; test: flow cytometry on H322M cells, anti-human Fc PE secondary (FIG. 55B)
# Method: Cell lines were routinely cultured no greater than 20 passages. Flow cyotometric analysis of antibody binding to human cancer cells. Cells were lifted with cell dissociation buffer (Gibco catalog #13151-014), counted, washed and adjusted to 5×10⁶ cells/ml. Cells (2.5×10⁵; 50 uL) were added to each well of a 96-well round bottom plate (Costar #3799). Purified antibodies were tested at a starting concentration of 300 nM with serial half-log dilutions in FACS buffer. FACS buffer used throughout the assay was PBS (without Ca++/Mg++) containing 5% FBS. Samples were incubated on ice for 30 minutes, washed 3× with 200 uL FACS buffer and centrifuged at 1200 rpm for 3 minutes at 4° C. C2B8 (rituximab, IgG1) was used as a negative control. […] Samples were incubated for an additional 30 minutes on ice, shielded from light. Cells were washed as described above and resuspended in 100 μl FACS buffer containing propidium iodide (PI) for dead cell exclusion (BD Pharmingen, catalog# 51-66211E or 556463; use at 1:500 final in FACS buffer). Samples were run in triplicate using the FACSArray flow cytometer (Becton Dickinson) with 5000 live events collected per sample. Data analysis was performed using the GraphPad Prism version 5.0 software (GraphPad Software Inc., 11452 El Camino Real #215, San Diego, Calif. 92130). Results. […]
# [3] = molecular target: T2, sIGF-1R(1-903) (human, UniProt P08069 31-933); test: ITC, 25 °C; footnote a: affinity too high for accurate measurement
# T2 construct: also called soluble IGF-1R ectodomain
# Method: Isothermal Titration Calorimetry (ITC). […] The reagents were co-dialyzed against PBS, pH 7.2. The protein solutions were adjusted to the concentrations listed above by dilution using PBS dialysate. […] The protein solutions were prepared as described above for the MAb binding experiments. All ITC experiments were performed on an ITC₂₀₀ microcalorimeter (MicroCal, LLC) at 25° C. […] IGF-1R bispecific antibodies. A four minute equilibration period was used between all injections with an initial delay of 60 seconds. Numerical integration of the data was performed using the ITC data analysis software supplied by MicroCal (Origin). ΔHA° (T) values were calculated based on the difference between the average heat liberated/absorbed during the binding phase of the injections and the average heat of dilution found once the receptor, IGF-1R, was saturated with MAb or BsAb.
# [4] = molecular target: T3, human IGF-1R(1-903)-Fc (human, UniProt P08069 31-933); test: IGF-1 blocking ELISA at 20 nM IGF-1 His on biotinylated hIGF-1R-Fc
# T3 construct: also called hIGF-1R-Fc; SDWT; not shown: human IgG1 Fc, C-terminal tag
# Method: (§1) The dilutions were added to the plates in duplicate at 100 μL/well and the plates were incubated at RT for 1 hour. The plates were then washed four times with 200 μL/well PBST. An HRP-conjugated anti-Histag antibody (Penta-His HRP Conjugate, QIAGEN, Cat. No. 1014992) was diluted 1:1000 in PBST and added to plates at 100 μL/well, and the plates were incubated at RT for one hour. The plates were then washed four times with 200 μL/well PBST. SureBlue Reserve TMB Microwell Peroxidase Substrate (KPL, Cat. No. 53-00-01) was added to plates at 100 μL/well followed by 1% phosphoric acid at 100 μL/well once the desired reaction was observed. The absorbance of each well was determined at 450 nm, and the results were normalized and plotted against the log of antibody concentration.
# (§2) Ligand Blocking Properties.
# [5] = molecular target: T3, human IGF-1R(1-903)-Fc; test: IGF-1 blocking ELISA at 80 nM IGF-1 His on biotinylated hIGF-1R-Fc
# Method: as §1, §2
# [6] = molecular target: T3, human IGF-1R(1-903)-Fc; test: IGF-1 blocking ELISA at 320 nM IGF-1 His on biotinylated hIGF-1R-Fc
# Method: as §1, §2
# [7] = molecular target: T3, human IGF-1R(1-903)-Fc; test: ELISA, blocking of IGF-2 His (640 nM by the table head) on biotinylated hIGF-1R-Fc
# [8] = molecular target: T4, hIGF-1R-Fc mutant SD015 (H464E) (human, UniProt P08069 31-933); test: SPR (Biacore 3000): SD015 captured on immobilized M13-C06 surface, M13-C06 (Fab according to paragraph 695) injected at 0, 1, 3, 10 nM
# T4 construct: not shown: human IgG1 Fc, C-terminal tag
# Method: After, completion of the receptor-Fc loading step, flow rates were elevated to 5 μl/min. […] At the end of each sensorgram, the flow rate was elevated to 30 μl/min and the chip surface was regenerated by 2×10 μL injections of 0.1 M glycine, pH 2.
# T3 sequence (P08069 31-933): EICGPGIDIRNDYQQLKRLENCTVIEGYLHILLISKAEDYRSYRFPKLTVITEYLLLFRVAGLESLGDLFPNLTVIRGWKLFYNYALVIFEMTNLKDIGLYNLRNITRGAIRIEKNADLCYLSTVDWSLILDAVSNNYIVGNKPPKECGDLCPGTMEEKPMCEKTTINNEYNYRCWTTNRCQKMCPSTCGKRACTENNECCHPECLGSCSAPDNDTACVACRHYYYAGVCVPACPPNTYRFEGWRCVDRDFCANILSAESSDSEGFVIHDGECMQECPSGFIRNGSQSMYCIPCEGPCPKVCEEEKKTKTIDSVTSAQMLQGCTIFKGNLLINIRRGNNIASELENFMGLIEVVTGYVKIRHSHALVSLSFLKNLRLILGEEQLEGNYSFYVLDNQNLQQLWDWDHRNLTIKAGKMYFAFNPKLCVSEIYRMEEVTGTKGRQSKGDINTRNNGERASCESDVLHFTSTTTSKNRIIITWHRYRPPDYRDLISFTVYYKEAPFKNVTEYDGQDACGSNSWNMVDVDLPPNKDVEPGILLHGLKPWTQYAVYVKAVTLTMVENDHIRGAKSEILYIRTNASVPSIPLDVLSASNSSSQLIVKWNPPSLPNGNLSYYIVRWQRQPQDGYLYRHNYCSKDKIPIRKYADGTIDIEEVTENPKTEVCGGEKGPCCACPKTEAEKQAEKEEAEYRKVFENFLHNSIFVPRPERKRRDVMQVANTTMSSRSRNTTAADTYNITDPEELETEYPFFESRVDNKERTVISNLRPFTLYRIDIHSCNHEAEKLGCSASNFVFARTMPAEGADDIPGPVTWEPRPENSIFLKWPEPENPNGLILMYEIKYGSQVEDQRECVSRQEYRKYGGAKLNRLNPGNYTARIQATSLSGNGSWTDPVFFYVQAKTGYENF
# T2 sequence (P08069 31-933): as above
# T1 sequence (P08069 31-1367, stated change not applied): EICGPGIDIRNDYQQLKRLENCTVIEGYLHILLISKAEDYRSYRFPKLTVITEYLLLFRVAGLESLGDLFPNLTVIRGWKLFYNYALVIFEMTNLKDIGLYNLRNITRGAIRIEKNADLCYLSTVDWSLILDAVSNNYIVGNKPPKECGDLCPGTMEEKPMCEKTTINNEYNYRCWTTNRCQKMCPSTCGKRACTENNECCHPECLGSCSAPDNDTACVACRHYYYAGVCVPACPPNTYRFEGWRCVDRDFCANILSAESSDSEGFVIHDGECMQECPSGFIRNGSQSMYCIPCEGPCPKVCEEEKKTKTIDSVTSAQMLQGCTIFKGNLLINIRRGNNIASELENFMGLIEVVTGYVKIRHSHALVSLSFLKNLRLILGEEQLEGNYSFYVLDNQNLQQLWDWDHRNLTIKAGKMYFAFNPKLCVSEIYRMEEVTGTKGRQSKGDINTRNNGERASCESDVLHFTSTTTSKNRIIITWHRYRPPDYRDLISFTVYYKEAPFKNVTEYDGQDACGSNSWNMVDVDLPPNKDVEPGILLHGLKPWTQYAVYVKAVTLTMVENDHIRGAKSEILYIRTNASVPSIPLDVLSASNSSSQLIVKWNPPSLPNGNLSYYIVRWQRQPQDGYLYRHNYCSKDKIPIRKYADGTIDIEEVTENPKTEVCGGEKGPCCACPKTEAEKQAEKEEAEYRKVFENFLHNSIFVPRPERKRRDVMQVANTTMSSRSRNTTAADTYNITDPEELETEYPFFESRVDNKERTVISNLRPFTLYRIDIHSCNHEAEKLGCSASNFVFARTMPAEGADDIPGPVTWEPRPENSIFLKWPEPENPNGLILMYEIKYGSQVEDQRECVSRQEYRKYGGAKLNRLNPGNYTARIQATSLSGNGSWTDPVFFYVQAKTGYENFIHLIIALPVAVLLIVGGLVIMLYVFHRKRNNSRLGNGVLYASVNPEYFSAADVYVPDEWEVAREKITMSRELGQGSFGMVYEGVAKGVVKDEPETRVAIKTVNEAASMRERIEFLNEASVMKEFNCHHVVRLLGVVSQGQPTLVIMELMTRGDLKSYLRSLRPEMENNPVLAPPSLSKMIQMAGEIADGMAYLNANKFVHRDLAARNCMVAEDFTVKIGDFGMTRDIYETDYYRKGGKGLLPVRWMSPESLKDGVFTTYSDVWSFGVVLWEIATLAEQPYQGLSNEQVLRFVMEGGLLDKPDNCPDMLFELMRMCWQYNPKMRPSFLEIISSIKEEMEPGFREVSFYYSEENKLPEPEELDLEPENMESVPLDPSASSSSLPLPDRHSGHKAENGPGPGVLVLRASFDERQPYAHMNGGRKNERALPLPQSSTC
# T4 sequence (P08069 31-933 H494E): as the sequence (P08069 31-933) above, with H464E counted along it
Binder,"reduction of surface IGF-1R after 24 hours (FACS, H322M cells) [1]",EC50 [2],-TΔS [3],Kd [3],ΔG [3],IC50 (read off the curve) [4],IC50 (read off the curve) [5],IC50 (read off the curve) [6],IC50 [7],binding result [8]
B1,> 70%,0.25 nM,10.6 kcal/mol,≤ 5 nM,-11.3 kcal/mol,~1 nM,~1 nM,~1 nM,1.9 nM,–
B2,–,–,–,–,–,–,–,–,–,no binding (tested: 10 nM)
